Results taken from paper PMC7700585, “Mechanistic Insights into the Allosteric Regulation of the Clr4 Protein Lysine Methyltransferase by Autoinhibition and Automethylation” (International Journal of Molecular Sciences, 2020).

Legend:
Clr4 WT [1] = target: T1, Clr4 WT (Schizosaccharomyces pombe, UniProt O60016); assay: AdoMet dependence of Clr4 WT activity (MALDI-TOF); format: biochemical; conditions: 30 °C, Hill model
T1 construct: The plasmid encoding for SUMO- and His-tagged full-length Clr4 WT and different mutant variants were transformed into E. coli; SUMO; His; made in house; host or cells: E. coli BL21-CodonPlus (DE3)
T1 sequence (O60016 whole entry): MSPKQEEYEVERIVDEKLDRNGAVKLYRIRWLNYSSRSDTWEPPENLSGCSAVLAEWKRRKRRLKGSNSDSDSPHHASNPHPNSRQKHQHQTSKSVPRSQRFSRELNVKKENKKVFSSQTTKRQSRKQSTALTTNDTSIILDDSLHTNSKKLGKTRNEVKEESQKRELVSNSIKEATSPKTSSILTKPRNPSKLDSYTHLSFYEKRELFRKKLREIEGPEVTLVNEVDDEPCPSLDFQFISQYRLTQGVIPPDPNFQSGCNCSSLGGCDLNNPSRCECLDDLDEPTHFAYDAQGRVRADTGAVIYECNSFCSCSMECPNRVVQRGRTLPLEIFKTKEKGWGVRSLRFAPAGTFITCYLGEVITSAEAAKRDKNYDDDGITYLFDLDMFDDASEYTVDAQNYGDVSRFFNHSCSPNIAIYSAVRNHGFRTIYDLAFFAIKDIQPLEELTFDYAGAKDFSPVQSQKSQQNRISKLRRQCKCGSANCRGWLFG
Experimental: (§1) To investigate the Clr4 AdoMet dependency and the role that could be played by ARL automethylation in sensing AdoMet concentrations, steady-state kinetics were conducted at variable AdoMet concentrations. […] Afterwards, the methylation products were detected by MALDI-TOF mass spectrometry (Supplementary Figure S5). The Clr4 reaction rates were derived from the analysis of relative peak intensities of the different methylated histone peptides (Figure 6A,B).
(§2) Figure 6 AdoMet dependence of the activity of Clr4 WT and the K455R/K472R mutant. Fractions of methylated products observed with increasing AdoMet concentrations (2–50 µM) for Clr4 WT (A) or the automethylation-deficient K455R/K472R mutant (B). Data were obtained from the analysis of corresponding relative peak intensities measured by MALDI-TOF mass spectrometry in two to four independent experiments (see Supplementary Figure S5).
The reactions were halted by the addition of 0.1% trifluoroacetic acid (TFA). […] After that, the dried spots on the anchor plate were analyzed using an Autoflex Speed MALDI-TOF mass spectrometer (Bruker-Daltonics, Billerica, MA, USA). […] The collected spectra were then analyzed with Flex analysis software (Bruker Daltonics). The relative methylation levels were determined by using the corresponding peak intensities of the substrate peptide in different methylation states.

Clr4 K455R/K472R = Clr4 K455R/K472R (Schizosaccharomyces pombe, UniProt O60016, K455R/K472R); assay: AdoMet dependence of Clr4 K455R/K472R activity (MALDI-TOF); format: biochemical
Sequence of Clr4 K455R/K472R (O60016 whole entry K455R/K472R): as the sequence (O60016 whole entry) above, with K455R, K472R counted along it
Experimental: as §1, §2
(§3) The reactions were halted by the addition of 0.1% trifluoroacetic acid (TFA). All the samples were cleaned using C18 tips (Agilent Technologies, Santa Clara, CA, USA). The eluted samples were spotted on an anchor chip plate and allowed to dry completely. Later, 1 μL of HCCA matrix (0.7 mg/mL α-cyano-4 hydroxycinnamic acid dissolved in 85% acetonitrile, 0.1% TFA, 1 mM ammonium dihydrogen phosphate) was added to dried sample and allowed to dry again. After that, the dried spots on the anchor plate were analyzed using an Autoflex Speed MALDI-TOF mass spectrometer (Bruker-Daltonics, Billerica, MA, USA). The mass spectra were collected using the Flex control software (Bruker-Daltonics). For calibration, the peptide calibration standard (Bruker-Daltonics) with peptides ranging from 700 to 3200 Da was used. The collected spectra were then analyzed with Flex analysis software (Bruker Daltonics). The relative methylation levels were determined by using the corresponding peak intensities of the substrate peptide in different methylation states.

Clr4 WT [2] = target: T1, Clr4 WT; assay: MALDI-TOF detection of Clr4 WT methylation of histone peptides; format: biochemical; conditions: 4.5 µM peptide, 1 mM unlabeled AdoMet
Experimental: as §3

Clr4 = assay: Radioactive in vitro automethylation of Clr4 WT and ARL variants (autoradiography); format: biochemical, Schizosaccharomyces pombe; conditions: for Automethylation level (relative value): relative to WT, mean ± S.D., two to four independent experiments, results with and without peptide combined, 0.45 µM Clr4, 2.4 µM H3K9me0 peptide, 0.76 µM [methyl-3H]-AdoMet, 50 mM Tris pH 8.8, 3 h, 30 °C; for change in automethylation, in words: compared to WT (triple mutant: compared to A454R); for decrease in automethylation compared to the WT enzyme (fold): autoradiography, normalized to WT
Excerpt: (§4) After the methylation reactions, the samples were separated by gel electrophoresis and the transfer of the radioactively labeled methyl groups from the cofactor to the respective target lysine residues in Clr4 and in the H3K9 peptide was visualized by autoradiography, analyzed quantitatively and normalized to WT (Figure 2 and Supplementary Table S1).
(§5) Figure 2 Methyltransferase activity and automethylation of different engineered Clr4 variants compared to wild type (WT). […] The red asterisks indicate the Clr4 automethylation signal. […] The mean values are indicated by the bars and the individual data points as circles. […] The p-values of the differences in automethylation and methyltransferase activities between WT and mutants are listed in Supplementary Table S1.
(§6) The reactions were stopped by the addition of Tricine-SDS-PAGE loading buffer followed by heating to 95 °C for 5 min. […] The signals of the transferred radioactively labeled methyl groups were detected by autoradiography using a Hyperfilm^TM high-performance autoradiography film (Merck), which was placed on the dried gels at −80 °C in the dark. Films were developed with an Optimax Typ TR machine after different exposure times. For quantification, the signal intensities were measured with ImageJ (https://imagej.nih.gov/ij/) and analyzed with Microsoft Excel (Microsoft, Redmond, WA, USA).

[3] = system: unmodified H3K9 peptide (H3K9me0); assay: Radioactive in vitro methyltransferase activity of Clr4 variants on H3K9 peptide; format: biochemical; conditions: for change in methyltransferase activity on the H3K9 peptide, in words: compared to WT (triple mutant: compared to A454R), low AdoMet (0.76 µM); for Methyltransferase activity (relative value): relative to WT, mean ± S.D., two to four independent experiments, 0.45 µM Clr4, 2.4 µM H3K9me0 (1–19) peptide, 0.76 µM [methyl-3H]-AdoMet, 50 mM Tris pH 8.8, 3 h, 30 °C
Excerpt: as §4, §5, §6

Clr4 A454R = target: T2, Clr4 A454R (Schizosaccharomyces pombe, UniProt O60016, A454R); format: biochemical
T2 construct: The plasmid encoding for SUMO- and His-tagged full-length Clr4 WT and different mutant variants were transformed into E. coli; SUMO; His; made in house; host or cells: E. coli BL21-CodonPlus (DE3)
T2 sequence (O60016 whole entry A454R): as the sequence (O60016 whole entry) above, with A454R counted along it
Experimental: A reaction of WT enzyme incubated with 400 µM peptide was loaded on each gel as reference for the quantitative analysis.
The methylation reactions were performed using a peptide concentration range (25–400 µM) in methylation buffer (50 mM Tris pH 8.8, 10 mM MgCl2, 20 mM KCl, 1 mM DTT) supplemented with 0.76 µM radioactively labeled AdoMet (PerkinElmer) and 0.3 µM Clr4 WT or variants for 1 h at 30 °C.

[4] = system: C[S+](CC[C@H](N)C(=O)[O-])C[C@H]1O[C@@H](n2cnc3c(N)ncnc32)[C@H](O)[C@@H]1O; assay: AdoMet dependence of Clr4 K455R/K472R activity (MALDI-TOF); format: biochemical, Schizosaccharomyces pombe; conditions: other: Clr4 K455R/K472R 0.9 µM, H3K9me1 peptide 4.58 µM, AdoMet 0–50 µM, 50 mM Tris pH 8.8, 3 h, 30 °C, Michaelis–Menten model, mean ± SEM, two to four independent experiments
Experimental: as §1, §2, §3

[5] = target: Clr4 wild type, SUMO- and His-tagged full-length (S. pombe, UniProt O60016 1-490); assay: cell-based or functional assay
[6] = target: Clr4 A454R mutant, SUMO- and His-tagged full-length (S. pombe, UniProt O60016 1-490, A454R); assay: cell-based or functional assay

C[S+](CC[C@H](N)C(=O)[O-])C[C@H]1O[C@@H](n2cnc3c(N)ncnc32)[C@H](O)[C@@H]1O (stereo partly drawn) [AdoMet, S-adenosyl-L-methionine]
N (Hill coefficient), Clr4 WT (Clr4 WT [1]; Clr4 WT 0.9 µM, H3K9me1 peptide 4.58 µM, AdoMet 0–50 µM, pH 8.8, 3 h, mean ± SEM): 1.87 ± 0.19
n, Clr4 K455R/K472R (Clr4 K455R/K472R; mutant data were fitted to the Michaelis–Menten model corresponding to an n-value of 1 (not a free parameter)): 1
rel. vmax (AdoMet), Clr4 K455R/K472R (Clr4 K455R/K472R; relative to WT activity, Clr4 K455R/K472R 0.9 µM, H3K9me1 peptide 4.58 µM, AdoMet 0–50 µM, pH 8.8, 3 h, 30 °C, Michaelis–Menten model, mean ± SEM): 0.71 ± 0.08

C[C@H](N)C(=O)N[C@@H](CCCNC(=N)N)C(=O)N[C@H](C(=O)N[C@@H](CCCCN)C(=O)N[C@@H](CCC(N)=O)C(=O)N[C@H](C(=O)N[C@@H](C)C(=O)N[C@@H](CCCNC(=N)N)C(=O)N[C@@H](CCCCN)C(=O)N[C@@H](CO)C(=O)N[C@H](C(=O)NCC(=O)NCC(=O)N[C@@H](CCCCN)C(=O)N[C@@H](C)C(=O)N1CCC[C@H]1C(=O)N[C@@H](CCCNC(=N)N)C(=O)N[C@@H](CCCCN)C(=O)N[C@@H](CCC(N)=O)C(N)=O)[C@@H](C)O)[C@@H](C)O)[C@@H](C)O [H3K9me0]
H3K9me1 product fraction after overnight incubation (Clr4 WT [2]): 12%
H3K9me2 product fraction after overnight incubation (Clr4 WT [2]): 42%
total methylation after overnight incubation (Clr4 WT [2]): 54%

A454R: Clr4 variant, A454 in the ARL was mutated to R
stronger automethylation compared to Clr4 WT (fold) (Clr4; p-value = 0.012): about 3.4 fold
Automethylation level (relative value) (Clr4): 3.4 ± 1.05
change in methyltransferase activity on the H3K9 peptide, in words [3]: approximately two-fold higher methyltransferase activity
Methyltransferase activity (relative value) [3]: 1.9 ± 0.33
activity at low concentrations of both histone peptides (Clr4 A454R; A454R compared to WT, H3K9me0 and H3K9me1, Figure S4): higher activity compared to the WT
Vmax difference A454R vs WT (Clr4 A454R; histone peptides, AdoMet 0.76 µM): minor

Clr4 K455R/K472R (Schizosaccharomyces pombe 972h-; K455R/K472R)
Km [4]: 13.6 ± 1.0 µM

Clr4 WT: S. pombe H3K9 protein lysine methyltransferase Clr4, wild type
reaction rate response towards increasing AdoMet concentration, Clr4 WT (Clr4 WT [1]; AdoMet 2–50 µM, H3K9me1 peptide, 3 h): sigmoidal response

D456S/F457T: Clr4 variant, D456 and F457 were mutated to S and T
change in automethylation, in words (Clr4): no significant change in automethylation
Automethylation level (relative value) (Clr4): 1.2 ± 0.33
change in methyltransferase activity on the H3K9 peptide, in words [3]: no significant change in automethylation and methyltransferase activity
Methyltransferase activity (relative value) [3]: 1.2 ± 0.14

K455M: Clr4 variant in which the target lysine in the ARL, K455, was mutated to M
change in automethylation, in words (Clr4): strong reduction in automethylation (about four-fold
Automethylation level (relative value) (Clr4): 0.23 ± 0.05
reduction in H3K9 peptide methyltransferase activity ([3]; less active than WT, p-value = 0.0004): 30%
Methyltransferase activity (relative value) [3]: 0.7 ± 0.09

K455R/K472R: ARL automethylation-deficient Clr4 mutant
decrease in automethylation compared to the WT enzyme (fold) (Clr4): ~2.2 fold
Automethylation level (relative value) (Clr4): 0.46 ± 0.15
change in methyltransferase activity on the H3K9 peptide, in words [3]: not accompanied by a corresponding reduction in activity
Methyltransferase activity (relative value) [3]: 0.91 ± 0.08
reaction rate response towards increasing AdoMet concentration, K455R/K472R (Clr4 K455R/K472R; AdoMet 2–50 µM, H3K9me1 peptide, 3 h, 30 °C, Michaelis–Menten model): regular hyperbolic shape

K455R: automethylation-deficient Clr4 mutant
decrease in automethylation compared to the WT enzyme (fold) (Clr4): about 1.4 fold
Automethylation level (relative value) (Clr4): 0.7 ± 0.08
change in methyltransferase activity on the H3K9 peptide, in words [3]: not accompanied by a corresponding reduction in activity
Methyltransferase activity (relative value) [3]: 1.1 ± 0.008

ARTKQTARKSTGGKAPRK (peptide, UniProt P68431 2-19, looked up, monomethyl-lysine at 9; biotin (end not stated)) [H3K9me1-biotin (1–18) peptide]
Km of peptide methylation (steady-state kinetics, Michaelis–Menten fit, 0.76 µM AdoMet) [5]: 16.4 µM
Km of peptide methylation (steady-state kinetics, Michaelis–Menten fit, 0.76 µM AdoMet) [6]: 5.5 µM

B1: A454R/D456S/F457T: Clr4 triple mutant, all of the exchanges combined in one mutant (protein, UniProt O60016 1-490, looked up, variant A454R D456S F457T)
Histone-lysine …: MSPKQEEYEVERIVDEKLDRNGAVKLYRIRWLNYSSRSDTWEPPENLSGCSAVLAEWKRRKRRLKGSNSDSDSPHHASNPHPNSRQKHQHQTSKSVPRSQRFSRELNVKKENKKVFSSQTTKRQSRKQSTALTTNDTSIILDDSLHTNSKKLGKTRNEVKEESQKRELVSNSIKEATSPKTSSILTKPRNPSKLDSYTHLSFYEKRELFRKKLREIEGPEVTLVNEVDDEPCPSLDFQFISQYRLTQGVIPPDPNFQSGCNCSSLGGCDLNNPSRCECLDDLDEPTHFAYDAQGRVRADTGAVIYECNSFCSCSMECPNRVVQRGRTLPLEIFKTKEKGWGVRSLRFAPAGTFITCYLGEVITSAEAAKRDKNYDDDGITYLFDLDMFDDASEYTVDAQNYGDVSRFFNHSCSPNIAIYSAVRNHGFRTIYDLAFFAIKDIQPLEELTFDYAGRKSTSPVQSQKSQQNRISKLRRQCKCGSANCRGWLFG
change in automethylation, in words (Clr4): no significant difference from the A454R single mutant
Automethylation level (relative value) (Clr4): 2.7 ± 0.66
change in methyltransferase activity on the H3K9 peptide, in words [3]: no significant difference from the A454R single mutant
Methyltransferase activity (relative value) [3]: 1.7 ± 0.02
